B1: B. subtilis ScpA (natural protein, Bacillus subtilis, UniProt P35154 1-251, looked up)
chain: MEEYQVKIDTFEGPLDLLLHLINRLEIDIYDIPVAKITEQYLLYVHTMRVLELDIASEYLVMAATLLSIKSRMLLPKQEEELFEDELLEEEDPREELIEKLIEYRKYKDAAKDLKEREEERQKSFTKPPSDLSEYAKEVKQSEQKLSVTVYDMIGAFQKVLKRKKINRPMETTITRQDIPIEARMNEIVHSLKSRGTRINFMDLFPYEQKEHLVVTFLAVLELMKNQLVLIEQEHNFSDIYITGSESIHGA
notes: ScpA (kleisin of the Smc-ScpAB complex), Bacillus subtilis; gene cloned into pET21a; expected mass printed as 31 kDa; source: E. coli Rosetta (DE3), purified (Ni-NTA, MonoQ)
B2: B. subtilis Smc (enzyme, Bacillus subtilis, UniProt P51834 1-1186, looked up)
chain: MFLKRLDVIGFKSFAERISVDFVKGVTAVVGPNGSGKSNITDAIRWVLGEQSARSLRGGKMEDIIFAGSDSRKRLNLAEVTLTLDNDDHFLPIDFHEVSVTRRVYRSGESEFLINNQPCRLKDIIDLFMDSGLGKEAFSIISQGKVEEILSSKAEDRRSIFEEAAGVLKYKTRKKKAENKLFETQDNLNRVEDILHELEGQVEPLKIQASIAKDYLEKKKELEHVEIALTAYDIEELHGKWSTLKEKVQMAKEEELAESSAISAKEAKIEDTRDKIQALDESVDELQQVLLVTSEELEKLEGRKEVLKERKKNAVQNQEQLEEAIVQFQQKETVLKEELSKQEAVFETLQAEVKQLRAQVKEKQQALSLHNENVEEKIEQLKSDYFELLNSQASIRNELQLLDDQMSQSAVTLQRLADNNEKHLQERHDISARKAACETEFARIEQEIHSQVGAYRDMQTKYEQKKRQYEKNESALYQAYQYVQQARSKKDMLETMQGDFSGFYQGVKEVLKAKERLGGIRGAVLELISTEQKYETAIEIALGASAQHVVTDDEQSARKAIQYLKQNSFGRATFLPLSVIRDRQLQSRDAETAARHSSFLGVASELVTFDPAYRSVIQNLLGTVLITEDLKGANELAKLLGHRYRIVTLEGDVVNPGGSMTGGAVKKKNNSLLGRSRELEDVTKRLAEMEEKTALLEQEVKTLKHSIQDMEKKLADLRETGEGLRLKQQDVKGQLYELQVAEKNINTHLELYDQEKSALSESDEERKVRKRKLEEELSAVSEKMKQLEEDIDRLTKQKQTQSSTKESLSNELTELKIAAAKKEQACKGEEDNLARLKKELTETELALKEAKEDLSFLTSEMSSSTSGEEKLEEAAKHKLNDKTKTIELIALRRDQRIKLQHGLDTYERELKEMKRLYKQKTTLLKDEEVKLGRMEVELDNLLQYLREEYSLSFEGAKEKYQLETDPEEARKRVKLIKLAIEELGTVNLGSIDEFERVNERYKFLSEQKEDLTEAKNTLFQVIEEMDEEMTKRFNDTFVQIRSHFDQVFRSLFGGGRAELRLTDPNDLLHSGVEIIAQPPGKKLQNLNLLSGGERALTAIALLFSILKVRPVPFCVLDEVEAALDEANVFRFAQYLKKYSSDTQFIVITHRKGTMEEADVLYGVTMQESGVSKVISVKLEETKEFVQ
notes: Smc (ATPase of the Smc-ScpAB complex), Bacillus subtilis; gene cloned into pET21a; expected mass printed as 135.5 kDa; source: E. coli Rosetta (DE3), purified (HiTrap Q flow-through, Ni-NTA)
B3: B. subtilis ScpB (natural protein, Bacillus subtilis, UniProt P35155 1-197, looked up)
chain: MGLDIVNWKAIVEALLYAAGDEGLTKKQLLTVLEIEEPELNTIMADVADEYRGDTRGIELIEYADTYMLSTKKDFAPYLKKLIEVPSKGLSQASLEVLAIVSYKQPITRAEIEEIRGVKSERILHSLVAKALLCEVGRADGPGRAILYGTTPTFLEQFGLKTLDELPPLPENAEEDVLQEEADLFFENFNQTFEDIK
notes: ScpB (KITE protein of the Smc-ScpAB complex), Bacillus subtilis; gene cloned into pET21a; expected mass printed as 23.2 kDa; source: E. coli Rosetta (DE3), purified (Ni-NTA, MonoQ)

Experiments:
Assay in all cases: cross-linking; purified proteins in various combinations incubated with or without 0.4% formaldehyde in Hepes 50 mM pH 7.5, NaCl 100 mM, DTT 0.1 mM, 20% glycerol; denatured at 65°C with SDS and BME; SDS-PAGE; bands identified by mass spectrometry (peptide fingerprinting)
B. subtilis Smc = biological target: B2; conditions: both partners purified
[1] = biological target: the molecule itself
B. subtilis ScpA = biological target: B1; conditions: both partners purified

B1
binding result (B. subtilis Smc): binds

B2
stoichiometry N [1]: 2

B3
binding result (B. subtilis ScpA): binds
stoichiometry N [1]: 2

Source: doi:10.1101/2025.05.11.653314, “Ureaplasma parvum SMC-ScpAB complex is capable of loop extrusion and demonstrates properties that distinguish it from Bacillus subtilis homologue” (bioRxiv, 2025)
